Experimental data taken from paper PMC5836831, “Candidate SNP markers of reproductive potential are predicted by a significant change in the affinity of TATA-binding protein for human gene promoters”.

B1: TPI1 promoter ODN, minor (rs1800202 g) (dsDNA)
DNA 1: CTCTATAGAAGTGGG
DNA 2: CCCACTTCTATAGAG
B2: TPI1 promoter ODN, ancestral (rs1800202 t) (dsDNA)
DNA 1: CTCTATATAAGTGGG
DNA 2: CCCACTTATATAGAG

Legend:
[1] = biological target: T1, TATA-binding protein (TBP) (human, UniProt P20226 1-339); test: EMSA; conditions: EMSA: 20 mM HEPES-KOH pH 7.6, 5 mM MgCl2, 70 mM KCl, 1 mM EDTA, 100 ug/ml BSA, 0.01% NP-40, 5% glycerol, 25 C, 0.3 nM TBP titrated with ODN; stopped-flow: …
[2] = biological target: T1, TATA-binding protein (TBP); test: stopped-flow fluorescence (FRET); EMSA: 20 mM HEPES-KOH pH 7.6, 5 mM MgCl2, 70 mM KCl, 1 mM EDTA, 100 ug/ml BSA, 0.01% NP-40, 5% glycerol, 25 C, 0.3 nM TBP titrated with ODN; stopped-flow: 0.1 uM ODN, 0.1-1.0 uM TBP, buffer not stated; conditions: protein: recombinant; label: 5'-TAMRA and 5'-FAM; blunt

T1 sequence (P20226 whole entry): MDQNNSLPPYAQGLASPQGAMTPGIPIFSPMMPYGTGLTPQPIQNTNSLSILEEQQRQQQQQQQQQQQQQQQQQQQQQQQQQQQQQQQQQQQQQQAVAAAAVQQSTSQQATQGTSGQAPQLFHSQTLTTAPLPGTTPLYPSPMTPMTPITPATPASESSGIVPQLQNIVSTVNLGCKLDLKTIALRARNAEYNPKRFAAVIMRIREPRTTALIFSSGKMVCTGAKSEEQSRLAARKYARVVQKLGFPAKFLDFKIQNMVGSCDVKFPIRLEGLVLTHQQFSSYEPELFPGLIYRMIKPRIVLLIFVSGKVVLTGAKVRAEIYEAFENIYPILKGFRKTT

Molecule | Kd [1] | Kd [2]
HBB promoter ODN, minor (rs33981098) | 0.09 µM | –
HBB promoter ODN, ancestral (rs33981098 a) | 0.044 µM | –
B1 | – | 0.006 µM
B2 | – | 0.001 µM
